Measured values reported in publication PMC5302886, “Structure and function of the mycobacterial transcription initiation complex with the essential regulator RbpA” (eLife, 2017).

Molecular target: T1, M. smegmatis RNA polymerase β’ subunit (M. smegmatis, UniProt A0QS66 1-1317)
T1 construct: RNA polymerase β’ subunit of Mycobacterium smegmatis mc2155, native chromosomal copy of rpoC with a C-terminal PreScission site and His10 tag; In the crystal β’ stood as part of the whole σ^A-holoenzyme, not as an isolated subunit; also called RNAP β’-ppx-His10; rpoC product
Assay: crystal structure; Msm RbpA/σ^A-holo mixed 1:1 with T10 upstream fork promoter DNA (RbpA/TIC, 446 kDa); hanging drop vapor diffusion at 22°C, 0.1 M Bis-Tris pH 6.0, 0.2 M LiSO4, 16% PEG 3350, 2.5% ethylene glycol; 2.76 Å
Details: both partners purified

Binder | binding result
M. smegmatis σ^A (natural protein, primary (group 1) sigma factor σ^A of Mycobacterium smegmatis; domains σ^A2, σ^A3, σ^A4 named in the text; Plasmid Msm pET-SUMO σ^A received from C; Stallings; also called Msm σ^A; SigA) MAATKASPATEEPVKRTATKTPAKKAPAKRAAKSAAAKAGGKAPAKKAPAKRAAKGTAAKPEDGVTDDLEVTDDLEAEPGEDLDVEDTDLELDDLDSDDDTAVEDEEEEADAATPAVATAKAADDDIDEPSEKDKASGDFVWDEEESEALRQARKDAELTASADSVRAYLKQIGKVALLNAEEEVELAKRIEAGLYATQKLAELAEKGEKLPVQQRRDMQWICRDGDRAKNHLLEANLRLVVSLAKRYTGRGMAFLDLIQEGNLGLIRAVEKFDYTKGYKFSTYATWWIRQAITRAMADQARTIRIPVHMVEVINKLGRIQRELLQDLGREPTPEELAKEMDITPEKVLEIQQYAREPISLDQTIGDEGDSQLGDFIEDSEAVVAVDAVSFTLLQDQLQSVLETLSEREAGVVRLRFGLTDGQPRTLDEIGQVYGVTRERIRQIESKTMSKLRHPSRSQVLRDYLD | binds
M. smegmatis RbpA (natural protein, RbpA of Mycobacterium smegmatis mc2155 (MSmeg_3858), cloned from genomic DNA into pet21C; elements NTT (25 residues, disordered in the crystal), CD, BL (residues 70-79), SID; 114 residues by the printed truncations (28-114aa, 72-114aa); the complex was held on the Ni2+ column by the His10-SUMO tag of σ^A and came in the flow-through after that tag was cleaved; The NTT was in the crystallised …) MADRVLRGSRLGAVSYETDRNHDLAPRQVARYRTDNGEEFDVPFADDAEIPGTWLCRNGLEGTLIEGDVPEPKKVKPPRTHWDMLLERRSVEELEELLKERLDLIKAKRRGTGS | binds
